Values quoted from earlier work in publication PMC8439649.

Biological target: mTORC1 (Homo sapiens) (UniProt P42345)

- Kd: 7 µM
Substance: DEPTOR PDZ (from UniProt Q8TB45)
